{"source": "patent US20240116985A1", "about": "(published 2024)", "binders": {"B1": {"name": "I-2053 (peptide)", "peptide": "Ac-[αAllylPro]D[tBuAla][B5(3)]D[Phe(3-COOH)]QAFA[PyrS2(4)][3Thi][Bta]A-NH2", "modifications": "staple 1-4, 4-11; reading uncertain; also: printed as Ac-PL3-Asp-Npg-B5-Asp-3COOHF-Gln-Ala-Phe-Ala-PyrS2-3Thi-BztA-Ala-NH2"}, "B2": {"name": "I-2055 (peptide)", "peptide": "Ac-[αAllylPro]D[tBuAla][B5(4)]D[Phe(3-COOH)]QAFL[PyrS2(4)][3Thi][Bta]V-NH2", "modifications": "staple 1-4, 4-11; reading uncertain; also: printed as Ac-PL3-Asp-Npg-B5-Asp-3COOHF-Gln-Ala-Phe-Leu-PyrS2-3Thi-BztA-Val-NH2"}, "B3": {"name": "I-2535 (peptide)", "peptide": "Ac-[αAllylPro]D[tBuAla][B5(4)]D[Phe(3-COOH)]AAF[Me2Gln][PyrS2″][2F3MeF][Bta][Me2Gln]-NH2", "modifications": "staple 1-4, 4-11; not fully specified; printed as Ac-PL3-Asp-Npg-B5-Asp-3COOHF-Ala-Ala-Phe-Me2Gln-PyrS2-2F3MeF-BztA-Me2Gln-NH2"}, "B4": {"name": "I-2536 (peptide)", "peptide": "Ac-[αAllylPro]D[tBuAla][B5(4)]D[Phe(3-COOH)]AAF[Me2Gln][PyrS2″][2F3MeF][Bta][Me2Gln]-NH2", "modifications": "staple 1-4, 4-11; not fully specified; printed as Ac-PL3-Asp-Npg-B5-Asp-3COOHF-Ala-Ala-Phe-Me2Gln-PyrS2-2F3MeF-BztA-Me2Gln-NH2"}, "B5": {"name": "I-2537 (peptide)", "peptide": "Ac-[αAllylPro]D[tBuAla][B5(4)]D[Phe(3-COOH)]AAF[MorphGln][PyrS2″][2F3MeF][Bta][Me2Gln]-NH2", "modifications": "staple 1-4, 4-11; not fully specified; printed as Ac-PL3-Asp-Npg-B5-Asp-3COOHF-Ala-Ala-Phe-MorphGln-PyrS2-2F3MeF-BztA-Me2Gln-NH2"}, "B6": {"name": "I-2538 (peptide)", "peptide": "Ac-[αAllylPro]D[tBuAla][B5(4)]D[Phe(3-COOH)]AAF[MorphGln][PyrS2″][Phe(2-CF3)][Bta][Me2Gln]-NH2", "modifications": "staple 1-4, 4-11; not fully specified; printed as Ac-PL3-Asp-Npg-B5-Asp-3COOHF-Ala-Ala-Phe-MorphGln-PyrS2-2F3MeF-BztA-Me2Gln-NH2"}, "B7": {"name": "I-2539 (peptide)", "peptide": "Ac-[αAllylPro]D[tBuAla][B5(4)]D[Phe(3-COOH)]AAF[AcLys][PyrS2″][2F3MeF][Bta][Me2Gln]-NH2", "modifications": "staple 1-4, 4-11; not fully specified; printed as Ac-PL3-Asp-Npg-B5-Asp-3COOHF-Ala-Ala-Phe-AcLys-PyrS2-2F3MeF-BztA-Me2Gln-NH2"}, "B8": {"name": "I-2540 (peptide)", "peptide": "Ac-[αAllylPro]D[tBuAla][B5(4)]D[Phe(3-COOH)]AAF[AcLys″][PyrS2″][Phe(2-CF3)][Bta][Me2Gln]-NH2", "modifications": "staple 1-4, 4-11; not fully specified; printed as Ac-PL3-Asp-Npg-B5-Asp-3COOHF-Ala-Ala-Phe-AcLys-PyrS2-2F3MeF-BztA-Me2Gln-NH2"}}, "note": "Starred links: 1 amine or outer side, 2 acyl side, 3 side chain; linkers in the order of their positions; H or OH if unused. Positions of bridges follow the written chain, without caps; N, C: chain ends. Non-standard residues stand in square brackets, D forms with d. Primed or numbered codes have the meaning given here. PyrS2″ = (S)-3-amino-1-((pent-4-en-1-yloxy)carbonyl)pyrrolidine-3-carboxylic acid (stapling residue), C=CCCCOC(=O)N1CC[C@@](N[*:1])(C(=O)[*:2])C1; B5(4) = 2,2-bis(4-pentenyl)glycine = 2-amino-2-(pent-4-en-1-yl)hept-6-enoic acid (stitching residue), C=CCCCC(CCCC=C)(N[*:1])C(=O)[*:2]; B5(3) = 2,2-bis(4-pentenyl)glycine (stitching residue), C=CCCCC(CCCC=C)(N[*:1])C(=O)[*:2]; AcLys″ = N6-acetyl-lysine, CC(=O)NCCCC[C@H](N[*:1])C(=O)[*:2]; Phe(3-COOH) = N[C@@H](Cc1cccc(C(=O)O)c1)C(=O)O; 2F3MeF = Cc1cccc(C[C@H](N[*:1])C(=O)[*:2])c1F; Phe(2-CF3) = N[C@@H](Cc1ccccc1C(F)(F)F)C(=O)O; AcLys = CC(=O)NCCCC[C@H](N[*:1])C(=O)[*:2]; Phe(2-Cl) = N[C@@H](Cc1ccccc1Cl)C(=O)O; Met(O2) = CS(=O)(=O)CC[C@H](N)C(=O)O; Bta = N[C@@H](Cc1csc2ccccc12)C(=O)O; Lys(iPr) = CC(C)NCCCC[C@H](N)C(=O)O; αAllylPro = C=CC[C@@]1(C(=O)O)CCCN1; tBuAla = CC(C)(C)C[C@H](N)C(=O)O; 3Thi = N[C@@H](Cc1ccsc1)C(=O)O; Cha = N[C@@H](CC1CCCCC1)C(=O)O; PyrS2(4) = not defined here; hSer = N[C@@H](CCO)C(=O)O; Nle = CCCC[C@H](N)C(=O)O"}
{"molecular_target": "T1, B-cat-Halo (beta-catenin HaloTag construct expressed in HEK293 cells) (UniProt P35222 1-781)", "T1 sequence (looked up)": "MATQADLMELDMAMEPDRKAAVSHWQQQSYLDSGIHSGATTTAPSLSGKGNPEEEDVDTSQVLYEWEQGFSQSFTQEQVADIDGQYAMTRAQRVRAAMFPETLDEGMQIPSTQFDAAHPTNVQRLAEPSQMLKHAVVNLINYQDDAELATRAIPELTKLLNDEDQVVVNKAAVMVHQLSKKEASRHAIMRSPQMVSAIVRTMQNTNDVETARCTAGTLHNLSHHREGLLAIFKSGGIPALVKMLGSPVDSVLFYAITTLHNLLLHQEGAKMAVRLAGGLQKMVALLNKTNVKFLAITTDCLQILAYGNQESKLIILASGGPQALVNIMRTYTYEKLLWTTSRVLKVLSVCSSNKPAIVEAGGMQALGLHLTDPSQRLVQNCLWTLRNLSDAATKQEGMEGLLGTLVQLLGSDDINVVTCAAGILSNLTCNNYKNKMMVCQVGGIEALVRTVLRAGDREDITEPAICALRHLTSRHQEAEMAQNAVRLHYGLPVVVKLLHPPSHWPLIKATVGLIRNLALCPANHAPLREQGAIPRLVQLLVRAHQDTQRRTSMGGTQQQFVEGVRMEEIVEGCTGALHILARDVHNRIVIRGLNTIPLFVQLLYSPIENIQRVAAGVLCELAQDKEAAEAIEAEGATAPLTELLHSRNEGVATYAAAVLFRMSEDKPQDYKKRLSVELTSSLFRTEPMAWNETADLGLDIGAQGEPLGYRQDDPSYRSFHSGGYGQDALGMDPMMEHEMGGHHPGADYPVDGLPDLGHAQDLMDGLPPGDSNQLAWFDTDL", "test": "cell-based or functional assay", "units": {"NanoBRET Abs IC50": "µM"}}
{"binder": "Ac-[αAllylPro]D[tBuAla][B5(4)]D[Phe(3-COOH)]NAFL[PyrS2″][Phe(2-CF3)][Bta]A-NH2 (staple 1-4, 4-11)", "note": "[I-2058]", "NanoBRET Abs IC50": 3.9}
{"binder": "Ac-[αAllylPro]D[tBuAla][B5(4)]D[Phe(3-COOH)]SAFL[PyrS2″][Phe(2-CF3)][Bta]A-NH2 (staple 1-4, 4-11)", "note": "[I-2059]", "NanoBRET Abs IC50": 4.8}
{"binder": "Ac-[αAllylPro]D[tBuAla][B5(4)]D[Phe(3-COOH)]TAFL[PyrS2″][Phe(2-CF3)][Bta]A-NH2 (staple 1-4, 4-11)", "note": "[I-2060]", "NanoBRET Abs IC50": 9.6}
{"binder": "Ac-[αAllylPro]D[tBuAla][B5(4)]D[Phe(3-COOH)]AAFL[PyrS2″][Phe(2-Cl)][Bta][Met(O2)]-NH2 (staple 1-4, 4-11)", "note": "[I-2062]", "NanoBRET Abs IC50": 3}
{"binder": "Ac-[αAllylPro]D[tBuAla][B5(4)]D[Phe(3-COOH)]AAFL[PyrS2″][Phe(2-CF3)][Bta][Met(O2)]-NH2 (staple 1-4, 4-11)", "note": "[I-2063]", "NanoBRET Abs IC50": 3.5}
{"binder": "Ac-[αAllylPro]D[tBuAla][B5(4)]D[Phe(3-COOH)][Met(O2)]AFL[PyrS2″][3Thi][Bta]A-NH2 (staple 1-4, 4-11)", "note": "[I-2064]", "NanoBRET Abs IC50": 11.8}
{"binder": "Ac-[αAllylPro]N[Cha][B5(4)]DQ[Lys(iPr)]AFN[PyrS2″]F[Bta]A-NH2 (staple 1-4, 4-11)", "note": "[I-2065]", "NanoBRET Abs IC50": "> 20"}
{"binder": "Ac-[αAllylPro]N[Cha][B5(4)]DQQAFN[PyrS2″]F[Bta][hSer]-NH2 (staple 1-4, 4-11)", "note": "[I-2067]", "NanoBRET Abs IC50": "> 20"}
{"binder": "Ac-[αAllylPro]N[Cha][B5(4)]DQ[Lys(iPr)]AFN[PyrS2″]F[Bta]F-NH2 (staple 1-4, 4-11)", "note": "[I-2068]", "NanoBRET Abs IC50": "> 20"}
{"binder": "Ac-[αAllylPro]N[Cha][B5(4)]DQHAFN[PyrS2″]F[Bta]A-NH2 (staple 1-4, 4-11)", "note": "[I-2069]", "NanoBRET Abs IC50": "> 20"}
{"binder": "Ac-[αAllylPro]N[Cha][B5(4)]DQQAFN[PyrS2″]F[Bta]A-NH2 (staple 1-4, 4-11)", "note": "[I-2070]", "NanoBRET Abs IC50": "> 20"}
{"binder": "Ac-[αAllylPro]D[tBuAla][B5(3)]D[Phe(3-COOH)]TAFL[PyrS2″][3Thi][Bta]A-NH2 (staple 1-4, 4-11)", "note": "[I-2051]", "NanoBRET Abs IC50": 8.3}
{"binder": "Ac-[αAllylPro]D[tBuAla][B5(3)]D[Phe(3-COOH)]QAFF[PyrS2″][3Thi][Bta]A-NH2 (staple 1-4, 4-11)", "note": "[I-2052]", "NanoBRET Abs IC50": 6}
{"binder": "B1", "NanoBRET Abs IC50": 5}
{"binder": "Ac-[αAllylPro]D[tBuAla][B5(4)]D[Phe(3-COOH)]QAFV[PyrS2″][3Thi][Bta]A-NH2 (staple 1-4, 4-11)", "note": "[I-2054]", "NanoBRET Abs IC50": 2.4}
{"binder": "B2", "NanoBRET Abs IC50": 10.5}
{"binder": "Ac-[αAllylPro]D[tBuAla][B5(4)]D[Phe(3-COOH)]QAFL[PyrS2″][3Thi][Bta]L-NH2 (staple 1-4, 4-11)", "note": "[I-2056]", "NanoBRET Abs IC50": 6.5}
{"molecular_target": "T2, Bcat-Halo (UniProt P35222 1-781)", "T2 sequence (looked up)": "T1 sequence (looked up)", "test": "cell-based or functional assay", "units": {"NanoBRET Abs IC50": "µM"}}
{"binder": "Ac-[αAllylPro]D[tBuAla][B5(4)]D[Phe(3-COOH)]AAFF[PyrS2(4)][3Thi][Bta][dA]-NH2 (staple 1-4, 4-11; reading uncertain)", "note": "[I-2094]", "NanoBRET Abs IC50": 9.7}
{"binder": "Ac-[αAllylPro]D[tBuAla][B5(4)]D[Phe(3-COOH)]AAFF[PyrS2″][2F3MeF][Bta][dA]-NH2 (staple 1-4, 4-11)", "note": "[I-2095]", "NanoBRET Abs IC50": 10.5}
{"molecular_target": "T3, B-cat-Halo (UniProt P35222 1-781, HaloTag NanoBRET 618 Ligand bound in the assay)", "T3 sequence (looked up)": "T1 sequence (looked up)", "test": "cell-based or functional assay", "units": {"NanoBRET Abs IC50": "µM"}}
{"binder": "Ac-[αAllylPro]D[tBuAla][B5(4)]D[Phe(3-COOH)]AAF[Nle][PyrS2″][2F3MeF][Bta][Me2Gln]-NH2 (staple 1-4, 4-11)", "note": "[I-2533]", "NanoBRET Abs IC50": 6.2}
{"binder": "Ac-[αAllylPro]D[tBuAla][B5(4)]D[Phe(3-COOH)]AAFF[PyrS2″][Phe(2-CF3)][Bta][Me2Gln]-NH2 (staple 1-4, 4-11)", "note": "[I-2534]", "NanoBRET Abs IC50": 4.4}
{"binder": "B3", "NanoBRET Abs IC50": 3.7}
{"binder": "B4", "NanoBRET Abs IC50": 4.5}
{"binder": "B5", "NanoBRET Abs IC50": 2.9}
{"binder": "B6", "NanoBRET Abs IC50": 3.5}
{"binder": "B7", "NanoBRET Abs IC50": 3.6}
{"binder": "B8", "NanoBRET Abs IC50": 3.5}
{"binder": "Ac-[αAllylPro]D[tBuAla][B5(4)]D[Phe(3-COOH)]AAFL[PyrS2″][Phe(2-CF3)][Bta][MorphGln]-NH2 (staple 1-4, 4-11)", "note": "[I-2541]", "NanoBRET Abs IC50": 4.7}
{"binder": "Ac-[αAllylPro]D[tBuAla][B5(4)]D[Phe(3-COOH)]AAF[Nle][PyrS2″][Phe(2-CF3)][Bta][MorphGln]-NH2 (staple 1-4, 4-11)", "note": "[I-2542]", "NanoBRET Abs IC50": 4}
